Results: patent publication US8304206B2, “Mass spectrometry assays for identifying compounds that activate deacetylases” (Sirtris Pharmaceuticals, Inc., priority 2005, dated 2012)
Values joined by “and” are separate entries in the source; they are usually repeats but may differ in a detail not shown here. Equal entries are not always repeated.

Substrate: CCCC[C@H](NC(=O)[C@H](CCCCNC(C)=O)NC(=O)[C@H](CO)NC(=O)[C@H](Cc1c[nH]cn1)NC(=O)[C@H](CO)NC(=O)[C@H](CO)NC(=O)[C@@H](NC(=O)[C@H](CO)NC(=O)[C@H](CCC(N)=O)NC(=O)CNC(=O)[C@H](CCCCNC(=O)CCCC[C@@H]1SC[C@@H]2NC(=O)N[C@@H]21)NC(=O)[C@H](CCC(=O)O)NC(=O)[C@H](CCC(=O)O)NC(C)=O)[C@@H](C)O)C(=O)N[C@@H](CO)C(=O)N[C@H](C(=O)N[C@@H](CCC(=O)O)C(=O)NCC(=O)N[C@@H](CCCCNC(=O)c1ccc2c(c1)C(=O)OC21c2ccc(N(C)C)cc2Oc2cc(N(C)C)ccc21)C(=O)N[C@@H](CCC(=O)O)C(=O)N[C@@H](CCC(=O)O)C(N)=O)[C@@H](C)O
Experiment: SIRT1 Km for Acetylated Peptide Substrate (mass spectrometry)
Format: biochemical, human
Conditions: pH 8.0, 25.0 °C
Description: Briefly, 1 μL of vehicle (DMSO) was added to each well of a Costar 96-well clear round bottom assay plate and 10 μL of 10% formic acid was added to all of the wells in row A. The Acetylated Peptide Substrate was serially diluted. Wells A2, A3, A4, A5, A6, A7, A8, A9, A10, A11 and A12 of a Costar 2 mL 96 well Assay Block were filled with 600 μL of Substrate Dilution Working Solution (SDWS; 4 mM NAD^+, 50 mM Tris HCl pH 8.0, 137 mM NaCl, 2.7 mM KCl, 1 mM MgCl2, 5 mM DTT, and 0.05% BSA). […] The APSTD-WS was serially diluted into SDWS by transferring 600 μL of APSTD-WS from well A1 to […] of the Costar 2 mL 96 well Assay Block. The solution was mixed 5 times and the process was continued by moving across row A, until well A12 was reached.
The Enzyme Working Solution (20 nM SIRT1, 50 mM Tris HCl pH 8.0, 137 mM NaCl, 2.7 mM KCl, 1 mM MgCl2, 5 mM DTT, 0.05% BSA) was prepared. […]
At 0, 3, 6, 9, 12, 15, 20, and 25 minutes, the reaction was stopped with 10% formic acid and the conversion of substrate to product was determined by mass spectrometry.
SIRT1 enzyme activity at 12 concentrations of SIRT1 Acetylated Peptide Substrate was monitored by comparing the percent conversion of Acetylated Peptide Substrate to Deacetylated Peptide Product over time. The reaction rate at each substrate concentration was determined as the slope of the product formation versus time plot in the linear range. […]

B1: SIRT1 (Homo sapiens) (protein)
chain: MADEAALALQPGGSPSAAGADREAASSPAGEPLRKRPRRDGPGLERSPGEPGGAAPEREVPAAARGCPGAAAAALWREAEAEAAAAGGEQEAQATAAAGEGDNGPGLQGPSREPPLADNLYDEDDDDEGEEEEEAAAAAIGYRDNLLFGDEIITNGFHSCESDEEDRASHASSSDWTPRPRIGPYTFVQQHLMIGTDPRTILKDLLPETIPPPELDDMTLWQIVINILSEPPKRKKRKDINTIEDAVKLLQECKKIIVLTGAGVSVSCGIPDFRSRDGIYARLAVDFPDLPDPQAMFDIEYFRKDPRPFFKFAKEIYPGQFQPSLCHKFIALSDKEGKLLRNYTQNIDTLEQVAGIQRIIQCHGSFATASCLICKYKVDCEAVRGDIFNQVVPRCPRCPADEPLAIMKPEIVFFGENLPEQFHRAMKYDKDEVDLLIVIGSSLKVRPVALIPSSIPHEVPQILINREPLPHLHFDVELLGDCDVIINELCHRLGGEYAKLCCNPVKLSEITEKPPRTQKELAYLSELPPTPLHVSEDSSSPERTSPPDSSVIVTLLDQAAKSNDDLDVSESKGCMEEKPQEVQTSRNVESIAEQMENPDLKNVGSSTGEKNERTSVAGTVRKCWPNRVAKEQISRRLDGNQYLFLPPNRYIFHGAEVYSDSEDDVLSSSSCGSNSDSGTCQSPSLEEPMEDESEIEEFYNGLEDEPDVPERAGGAGFGTDGDDQEAINEAISVKQEVTDMNYPSNKS
notes: The SirT1 gene was cloned into a T7-promoter containing vector and transformed into BL21(DE3); His-tag (N); made in house; host or cells: E. coli BL21(DE3)
B1 was tested, and the Km (other: Sirt1, Mass Spectrometry, present invention) was 11.6 µM and the Km (other: single replicate plates, 2 mM NAD+, 1% DMSO) was 11.2 µM and 11.9 µM.
